According to patent publication US20070110757A1:
Positions count from the first letter of the chain named.

B1: A17d4(1) monoclonal antibody (antibody, V domains shown)
VH: QVTLRESGPALVKPTQTLTLTCTFSGFSLSTAGMSVGWIRQPPGKALEWLADIWWDGKKSYNPSLKDRLTISKDTSKNQVVLKVTNMDPADTATYYCARDMIFNFYFDVWGQGTTVTVSS
VL: DIQMTQSPSTLSASVGDRVTITCLPSSRVGYMHWYQQKPGKAPKLLIYDTMYQSSGVPSRFSGSGSGTEFTLTISSLQPDDFATYYCFQGSGYPFTFGGGTKVEIK
B2: A13c4 Fab fragment (Fab, V domains shown)
VH: B1 VH
VL: B1 VL with L24S, P25L
B3: A4B4 Fab fragment (Fab, V domains shown)
VH: B1 VH with G57D, S60H
VL: B1 VL with L24S, P25A, M51F, Y52F, Q53L, S54D
B4: A1h5 Fab fragment (Fab, V domains shown)
VH: B1 VH with S60H, F105W
VL: B1 VL with L24S, P25L, R28S, M51F, Y52F, Q53H, S54R
B5: P12f2 Fab fragment (Fab, V domains shown)
VH: B1 VH with A32P, G57D, S60H
VL: B1 VL with L24S, P25L, M51F, Q53L
B6: P11d4 monoclonal antibody (antibody, V domains shown)
VH: B1 VH with A32P, S60H, F105W
VL: B1 VL with L24S, Y52R, Q53L, S54A
B7: A13a11 Fab fragment (Fab, V domains shown)
VH: B1 VH with G57D, S60H, F105W
VL: B1 VL with L24S, M51Y, Y52R, Q53H
B8: P12f4 Fab fragment (Fab, V domains shown)
VH: B1 VH with A32P, S60H
VL: B1 VL with L24S, P25L, M51R, Y52G, Q53L, S54P
B9: A1e9 Fab fragment (Fab, V domains shown)
VH: B1 VH with S60H, F105W
VL: B1 VL with L24S, P25L, M51F, Y52K, Q53L
B10: A1e9 monoclonal antibody (antibody, V domains shown)
VH: B1 VH with S60H, F105W
VL: B1 VL with L24S, P25L, M51F, Y52K, Q53L
B11: P11d4 Fab fragment (Fab, V domains shown)
VH: B1 VH with A32P, S60H, F105W
VL: B1 VL with L24S, Y52R, Q53L, S54A
B12: P12f2 monoclonal antibody (antibody, V domains shown)
VH: B1 VH with A32P, G57D, S60H
VL: B1 VL with L24S, P25L, M51F, Q53L
B13: A13c4 monoclonal antibody (antibody, V domains shown)
VH: B1 VH
VL: B1 VL with L24S, P25L
B14: A8c7 monoclonal antibody (antibody, V domains shown)
VH: B1 VH with G57D, F105W
VL: B1 VL with L24S, M51R
B15: P12f4 monoclonal antibody (antibody, V domains shown)
VH: B1 VH with A32P, S60H
VL: B1 VL with L24S, P25L, M51R, Y52G, Q53L, S54P
B16: A12a6 Fab fragment (Fab, V domains shown)
VH: B1 VH with S60D
VL: B1 VL with L24S, P25A, M51F, Y52K, Q53L
B17: A8c7 Fab fragment (Fab, V domains shown)
VH: B1 VH with G57D, F105W
VL: B1 VL with L24S, M51R
B18: A17d4(1) Fab fragment (Fab, V domains shown)
VH: B1 VH
VL: B1 VL
B19: A12a6 monoclonal antibody (antibody, V domains shown)
VH: B1 VH with S60D
VL: B1 VL with L24S, P25A, M51F, Y52K, Q53L
B20: A4B4 monoclonal antibody (antibody, V domains shown)
VH: B1 VH with G57D, S60H
VL: B1 VL with L24S, P25A, M51F, Y52F, Q53L, S54D

biological target: RSV F protein on respiratory syncytial virus (RSV-Long strain) (respiratory syncytial virus (Long strain)) (UniProt P12568); test: cell-based or functional assay
Sequence (P12568 26-574): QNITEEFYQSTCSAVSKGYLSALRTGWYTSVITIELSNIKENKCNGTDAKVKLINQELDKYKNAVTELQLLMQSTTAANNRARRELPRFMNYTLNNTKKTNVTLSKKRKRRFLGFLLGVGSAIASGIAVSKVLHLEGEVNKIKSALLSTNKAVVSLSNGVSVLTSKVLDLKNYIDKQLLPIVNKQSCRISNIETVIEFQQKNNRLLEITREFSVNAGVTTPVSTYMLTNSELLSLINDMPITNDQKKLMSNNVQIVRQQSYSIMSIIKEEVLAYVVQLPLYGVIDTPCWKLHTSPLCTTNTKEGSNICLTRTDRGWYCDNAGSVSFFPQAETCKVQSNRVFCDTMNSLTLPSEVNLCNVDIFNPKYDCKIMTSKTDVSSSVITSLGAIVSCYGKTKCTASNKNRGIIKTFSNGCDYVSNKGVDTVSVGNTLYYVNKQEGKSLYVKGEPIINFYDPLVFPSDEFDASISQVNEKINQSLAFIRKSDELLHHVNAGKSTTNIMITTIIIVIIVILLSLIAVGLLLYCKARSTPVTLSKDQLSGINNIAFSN

Binder	Fold Difference (Control IC50) [fold]	Fold Difference (Curve IC50) [fold]	Mean IC50 (Control), RSV microneutralization [µg/mL]	Mean IC50 (Curve), RSV microneutralization [µg/mL]
B1	15	13	0.0354	0.0342
B2	21	17	0.0258	0.0264
B3	13	11	0.0411	0.0414
B4	3	2	0.176	0.194
B5	16	11	0.0326	0.0407
B6	19	21	0.0289	0.0217
B7	5	4	0.102	0.12
B8	15	10	0.0351	0.0464
B9	4	3	0.125	0.157
B10	8	7	0.0645	0.0625
B11	–	–	> 1	> 1
B12	24	20	0.0223	0.0231
B13	14	12	0.0375	0.0376
B14	14	13	0.0383	0.0337
B15	23	19	0.0235	0.0242
B16	17	16	0.031	0.0287
B17	34	3	0.157	0.177
B18	31	25	0.0171	0.0179
B19	15	13	0.0354	0.0357
B20	35	27	0.0154	0.0171
